# Patent publication US20190144559A1 (Daiichi Sankyo, published 2019)
# Changes are numbered by the printed parent chain.
# T1: Recombinant Human TROP-2 Fc chimera (human, UniProt P09758 27-274, limits assumed)
# T1 construct: Used as the analyte in Biacore; also called antigen (Recombinant Human TROP-2 Fc chimera); not shown: Fc part and any linker of the chimera are not described
# T1 sequence (looked up): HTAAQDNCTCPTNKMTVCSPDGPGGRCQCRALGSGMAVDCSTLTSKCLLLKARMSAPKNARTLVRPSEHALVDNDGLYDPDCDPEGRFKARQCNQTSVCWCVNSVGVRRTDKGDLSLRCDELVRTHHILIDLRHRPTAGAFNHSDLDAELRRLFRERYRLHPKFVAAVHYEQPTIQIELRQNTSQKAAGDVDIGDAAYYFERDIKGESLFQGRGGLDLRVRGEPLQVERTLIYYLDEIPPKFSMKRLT
# B1: hRS7 antibody (antibody, V domains shown)
# VH: QVQLQQSGSELKKPGASVKVSCKASGYTFTNYGMNWVKQAPGQGLKWMGWINTYTGEPTYTDDFKGRFAFSLDTSVSTAYLQISSLKADDTAVYFCARGGFGSSYWYFDVWGQGSLVTVSS
# VL: DIQLTQSPSSLSASVGDRVSITCKASQDVSIAVAWYQQKPGKAPKLLIYSASYRYTGVPDRFSGSGSGTDFTLTISSLQPEDFAVYYCQQHYITPLTFGAGTKVEIKR
# B2: hTINA1-H2L1 (antibody, human IgG1, kappa)
# heavy: not shown
# light: DIQMTQSPSSLSASVGDRVTITCKASQDVSTAVAWYQQKPGKAPKLLIYSASYRYTGVPSRFSGSGSGTDFTLTISSLQPEDFAVYYCQQHYITPLTFGQGTKLEIKRTVAAPSVFIFPPSDEQLKSGTASVVCLLNNFYPREAKVQWKVDNALQSGNSQESVTEQDSKDSTYSLSSTLTLSKADYEKHKVYACEVTHQGLSSPVTKSFNRGEC
# notes: Human IgG1/kappa; also called hTINA1 antibody
# B3: hTINA1-H3L3 (antibody, human IgG1, kappa, V domains shown)
# VH: QIQLVQSGAEVKKPGESVKVSCKASGYTFTTAGMQWVQQMPGKGLEWMGWINTHSGVPKYAEDFKGRVTFSLDTSTSTAYLQLSSLKSEDTAVYYCARSGFGSSYWYFDVWGQGTLVTVSS
# VL: B1 VL with Q3V, L4M, S20T, I31T, A43Q, D60S, A100Q, V104L
# notes: as for B2
# B4: hTINA1-H2L2 (antibody, human IgG1, kappa)
# heavy: not shown
# light: B2 light with Q3V
# notes: as for B2
# B5: hTINA1-H1L1 (antibody, human IgG1, kappa, V domains shown)
# VH: B3 VH with I2V, E16A, Q38R, M40A, K43Q, F70I, L72A
# VL: B1 VL with L4M, S20T, I31T, D60S, A100Q, V104L
# notes: Human IgG1/kappa; also called hTINA1 antibody; humanized TINA1
# B6: cTINA1 antibody (antibody, human IgG1, V domains shown)
# VH: QIQLVQSGPELKKPGETVRISCKASGYTFTTAGMQWVQKMPGKGLKWIGWINTHSGVPKYAEDFKGRFAFSLETSASTAYLQISNLKNEDTTTYFCARSGFGSSYWYFDVWGAGTAVTVSS
# VL: DIVMTQSHKFMSTSVGDRVSITCKASQDVSTAVAWYQQKPGQSPKLLIYSASYRYTGVPDRFTGSGSGTAFTFTISSVQAEDLAVYYCQQHYITPLTFGAGTKLELKR
# notes: Mouse TINA1 variable regions on human IgG1/kappa constant regions; also called human chimeric TINA1 antibody; chimeric TINA1
# Biological target: T1, Recombinant Human TROP-2 Fc chimera
# Assay: SPR Biacore 3000, purified antibody captured on anti-human IgG (Fab), antigen as analyte, bivalent model
row,Binder,Kd [nM]
1,B1,0.3
2,B2,30
3,B3,15
4,B4,27
5,B5,27

# Biological target: T1, Recombinant Human TROP-2 Fc chimera
# Assay: SPR Biacore 3000, antibody from culture supernatant captured on anti-human IgG (Fab), antigen as analyte, bivalent model
row,Binder,Kd [nM]
1,B6,56
2,B2,69
3,B3,58
4,B4,71
5,B5,63
